Six molecules from patent US20230357429A1 (JANUX THERAPEUTICS, published 2023) can be followed below.

Residue numbers refer to the chain shown, from its start. Names and notes keep the numbering of the source. Read-outs that look alike come from different tables or passages of the source. Where no end group is shown, it is not given here.

The target in test [1] is T1, Human TROP2 ECD (31-274 AA), biotinylated (human, UniProt P09758 31-274, biotinylated (site not stated)).
T1 construct: also called tumor-associated calcium signal transducer 2; Human TROP2-biotin
T1 sequence: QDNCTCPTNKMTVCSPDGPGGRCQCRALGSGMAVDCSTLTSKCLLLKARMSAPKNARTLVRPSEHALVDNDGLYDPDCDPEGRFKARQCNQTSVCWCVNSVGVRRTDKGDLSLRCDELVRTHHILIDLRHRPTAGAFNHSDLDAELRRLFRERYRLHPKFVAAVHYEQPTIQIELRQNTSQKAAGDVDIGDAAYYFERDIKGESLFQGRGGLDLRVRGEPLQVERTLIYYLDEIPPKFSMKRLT
Kind of test: BLI (Octet), dissociation half-life from biotinylated human TROP2 ECD. On the technique in general: In BLI a coated tip is dipped into the sample, and binding shifts an interference pattern.

For test [2], the target named is T1, Human TROP2 ECD (31-274 AA), …. Kind of test: ELISA: biotinylated TROP2 captured on neutravidin plate, Fab titrated, HRP secondary antibody.
The target is the same in test [3]. The test can be described thus: ELISA, ratio of EC50 to that of TBD-1 wt. (In general: An ELISA detects its analyte on a solid surface through an enzyme-linked reagent.)
The target is the same in test [4]. The test can be described thus: ELISA, biotinylated TROP2 ECD on neutravidin plate, Fab titrated.
Test [5] shares this target. Kind of test: BLI (Octet), biotinylated human TROP2 ECD on SAX sensor, Fab 6.25-50 nM.
Test [6] has the same target. The test can be described thus: ELISA: biotinylated TROP2 captured on neutravidin plate, Fab titrated, HRP secondary antibody. This is another data set of the same source.
The next test deals with T2, Peptide-33 (cysteine pairing not given here; also: biotinylated, site not given here).
T2 peptide: PDFCYMYNWPVCVT
The test can be described thus: ELISA, Fab on captured biotin-peptide.

A further test has as its target T3, Peptide-39 (cysteine pairing not given here; also: biotinylated, site not given here).
T3 peptide: VDFCGLYHWPICYQVD
The test can be described thus: ELISA, Fab on captured biotin-peptide.

In another test the target is T4, Peptide-42 (cysteine pairing not given here; also: biotinylated, site not given here).
T4 peptide: IDFCAMYHWPICDT
Kind of test: ELISA, Fab on captured biotin-peptide.

The target in another test is T5, Peptide-38 (cysteine pairing not given here; also: biotinylated, site not given here).
T5 peptide: VDFCSIYHWPVCYV
Kind of test: ELISA, Fab on captured biotin-peptide.

Another test addresses T6, Peptide-64 (cysteine pairing not given here; also: biotinylated, site not given here).
T6 peptide: PDFCAVYRWPICYQ
The test can be described thus: ELISA, Fab on captured biotin-peptide.

In a further test the target is T7, Peptide-43 (cysteine pairing not given here; also: biotinylated, site not given here).
T7 peptide: VDFCALYHWPICYQ
Kind of test: ELISA, Fab on captured biotin-peptide.

Another test concerns the target T8, Peptide-36 (cysteine pairing not given here; also: biotinylated, site not given here).
T8 peptide: VDFCYQYGWPICSR
The test can be described thus: ELISA, Fab on captured biotin-peptide.

The target in test [7] is T9, Peptide-8 (cysteine pairing not given here; also: biotinylated, site not given here).
T9 peptide: VDFCGLYHWPICYQ
The test can be described thus: ELISA, Fab on captured biotin-peptide.

The target in another test is T10, Peptide-40 (cysteine pairing not given here; also: biotinylated, site not given here).
T10 peptide: VDFCYLYSWPICTK
The test can be described thus: ELISA, Fab on captured biotin-peptide.

The target in a further test is T11, Peptide-37 (cysteine pairing not given here; also: biotinylated, site not given here).
T11 peptide: VDFCYLYNWPVCSK
The test can be described thus: ELISA, Fab on captured biotin-peptide.

In test [8] the target is T12, Peptide-3 (cysteine pairing not given here; also: biotinylated, site not given here).
T12 peptide: IDFCMLYNWPICAG
Kind of test: ELISA, Fab on captured biotin-peptide.

Another test has as its target T13, Peptide-63 (cysteine pairing not given here; also: biotinylated, site not given here).
T13 peptide: IDFCLIYNWPVCDT
The test can be described thus: ELISA, Fab on captured biotin-peptide.

Another test deals with T14, Peptide-62 (cysteine pairing not given here; also: biotinylated, site not given here).
T14 peptide: IDFCAVYKWPVCQV
The test can be described thus: ELISA, Fab on captured biotin-peptide.

The target in test [9] is T15, Peptide-25 (cysteine pairing not given here; also: biotinylated (site not given here)).
T15 peptide: VDFCKIYSWPVCHQ
Kind of test: ELISA, Fab on captured biotin-peptide.

The target of the next test is T16, Peptide-32 (cysteine pairing not given here; also: biotinylated, site not given here).
T16 peptide: PDFCYMYGWPICDS
The test can be described thus: ELISA, Fab on captured biotin-peptide.

The next test concerns the target T17, Peptide-41 (cysteine pairing not given here; also: biotinylated, site not given here).
T17 peptide: VDFCGLYHWPICYQVY
The test can be described thus: ELISA, Fab on captured biotin-peptide.

The target of another test is T18, Peptide-35 (cysteine pairing not given here; also: biotinylated, site not given here).
T18 peptide: EDFCYWYQWPICSD
The test can be described thus: ELISA, Fab on captured biotin-peptide.

For a further test, the target named is T19, Peptide-4 (cysteine pairing not given here; also: biotinylated, site not given here).
T19 peptide: VDFCKIYAWPICGS
Kind of test: ELISA, Fab on captured biotin-peptide.

The target in the next test is T20, Peptide-17 (cysteine pairing not given here; also: biotinylated (site not given here)).
T20 peptide: IDFCLLYDWPICGR
Kind of test: ELISA, Fab on captured biotin-peptide.

The target in a further test is T21, Peptide-14 (cysteine pairing not given here; also: biotinylated (site not given here)).
T21 peptide: LDFCKIYDWPICHL
Kind of test: ELISA, Fab on captured biotin-peptide.

Another test concerns the target T22, Peptide-18 (cysteine pairing not given here; also: biotinylated (site not given here)).
T22 peptide: MDFCQIYDWPICRL
The test can be described thus: ELISA, Fab on captured biotin-peptide.

The target of the next test is T23, Peptide-20 (cysteine pairing not given here; also: biotinylated (site not given here)).
T23 peptide: VDFCSFYRWPICET
The test can be described thus: ELISA, Fab on captured biotin-peptide.

Test [10] has as its target T9, Peptide-8. Kind of test: ELISA, Fab on captured biotin-peptide.
Another test has as its target T24, Peptide-10 (cysteine pairing not given here; also: biotinylated (site not given here)).
T24 peptide: IDFCAIYQWPVCRS
The test can be described thus: ELISA, Fab on captured biotin-peptide.

Another test deals with T25, Peptide-1 (cysteine pairing not given here; also: biotinylated (site not given here)).
T25 peptide: IDFCAMYQWPICDT
The test can be described thus: ELISA, Fab on captured biotin-peptide.

The target in a further test is T26, Peptide-6 (cysteine pairing not given here; also: biotinylated, site not given here).
T26 peptide: IDFCLIYNWPVCDT
The test can be described thus: ELISA, Fab on captured biotin-peptide.

Another test deals with T27, Peptide-5 (cysteine pairing not given here; also: biotinylated, site not given here).
T27 peptide: VDFCKLYNWPVCQT
The test can be described thus: ELISA, Fab on captured biotin-peptide.

A further test concerns the target T28, Peptide-7 (cysteine pairing not given here; also: biotinylated, site not given here).
T28 peptide: EDFCKLYNWPICYQ
Kind of test: ELISA, Fab on captured biotin-peptide.

The target of another test is T29, Peptide-13 (cysteine pairing not given here; also: biotinylated (site not given here)).
T29 peptide: VDFCELYRWPICNS
The test can be described thus: ELISA, Fab on captured biotin-peptide.

The target of the next test is T30, Peptide-12 (cysteine pairing not given here; also: biotinylated (site not given here)).
T30 peptide: PDFCAVYRWPICYQ
The test can be described thus: ELISA, Fab on captured biotin-peptide.

Test [11] has as its target T12, Peptide-3. The test can be described thus: ELISA, Fab on captured biotin-peptide.
The target of another test is T31, Peptide-2 (cysteine pairing not given here; also: biotinylated (site not given here)).
T31 peptide: IDFCAVYKWPVCQV
Kind of test: ELISA, Fab on captured biotin-peptide.

Test [12] addresses T15, Peptide-25. The test can be described thus: ELISA, Fab on captured biotin-peptide.
Test [13] addresses T32, Human TROP2 ECD (31-274 AA), biotinylated (human, UniProt P09758 31-274, biotinylated (site not stated)).
T32 construct: captured on neutravidin plates; also called TROP2-biotin; Trop2-biotin
T32 sequence: T1 sequence
Kind of test: ELISA, Fab on captured biotin-TROP2.

In test [14] the target is T32, Human TROP2 ECD (31-274 AA), …. The test can be described thus: ELISA, Fab on captured biotin-TROP2. This is another data set of the same source.

B1: TBD-11 (anti-TROP2 Fab, HC R98A) (Fab, V domains shown)
VH: QVQLQQSGSELKKPGASVKVSCKASGYTFTNYGMNWVKQAPGQGLKWMGWINTYTGEPTYTDDFKGRFAFSLDTSVSTAYLQISSLKADDTAVYFCAAGGFGSSYWYFDVWGQGSLVTVSS
VL: DIQLTQSPSSLSASVGDRVSITCKASQDVSIAVAWYQQKPGKAPKLLIYSASYRYTGVPDRFSGSGSGTDFTLTISSLQPEDFAVYYCQQHYITPLTFGAGTKVEIKR
notes: also called TBD-11 (HC R98A mutant)
The EC50 is the concentration that produces a half-maximal response. A low value points to higher potency in that assay. The Kd is the concentration at which binding is half-saturated. Low values mean higher affinity, high ones lower affinity. Consider B1, for which the “t1/2” value in [1] stood at 10 min. For the same molecule, the EC50 in [2] and in test [4] was 3.8 nM in each case. Moreover, the “Fold shift in EC50 relative to wt” value in [3] turned out to be 19 fold. The Kd in test [5] came to 3.88 nM.

B2: TBD-12 (anti-TROP2 Fab, HC G99A) (Fab, V domains shown)
VH: B1 VH with A98R, G99A
VL: B1 VL
For the molecule B2, the “t1/2” value in test [1] worked out at 39 min. Moreover, the EC50 in test [2] and in test [4] was 0.2 nM throughout. Moreover, the “Fold shift in EC50 relative to wt” value in test [3] is 1 fold. The same molecule yielded a Kd in [5] of 0.492 nM.

B3: TBD-15 (anti-TROP2 Fab, HC G102A) (Fab, V domains shown)
VH: B1 VH with A98R, G102A
VL: B1 VL
In the case of B3, the EC50 in test [6] and in test [4] was 72.2 nM in each case. The “t1/2” value in test [1] worked out at 1 min. Moreover, the “Fold shift in EC50 relative to wt” value in [3] was 361 fold. The molecule further registered a Kd in test [5] of 5.71 nM.

B4: TBD-14 (anti-TROP2 Fab, HC F101A) (Fab, V domains shown)
VH: B1 VH with A98R, F101A
VL: B1 VL
With B4, the EC50 in test [6] and in [4] was 38.6 nM each time. For the same molecule, the “t1/2” value in [1] is 4 min. For the same molecule, in test [3], the “Fold shift in EC50 relative to wt” value is 193 fold. The molecule also yielded a Kd in test [5] of 18.7 nM.

B5: TBD-22 (HC D109A) (Fab, V domains shown)
VH: B1 VH with A98R, D109A
VL: B1 VL
notes: Fab; also called HC D109A mutant
For B5, the EC50 with Peptide-33 was determined as 1.5 nM; with Peptide-39, 4.6 nM; with Peptide-42, 0.8 nM; in the test with Peptide-38, 2 nM; with Peptide-64 it was 1.7 nM; in the test with Peptide-43, 0.9 nM. The EC50 is 2.2 nM with Peptide-36; 0.6 nM in the test with Peptide-8 [7]; 4.6 nM with Peptide-40; 1.7 nM with Peptide-37; 3 nM in the test with Peptide-3 [8]; 1.7 nM with Peptide-63. The EC50 was 0.9 nM in the test with Peptide-62; 2.8 nM with Peptide-25 [9]; 2.1 nM in the test with Peptide-32; 6 nM in the test with Peptide-41; 7.7 nM in the test with Peptide-35; 1.2 nM with Peptide-4. The EC50 in the test with Peptide-17 is 2.6 nM; with Peptide-14, 5.3 nM; with Peptide-18 it was 7.8 nM; with Peptide-20, 5.3 nM; in the test with Peptide-8 [10], 0.6 nM; with Peptide-10 it was 1 nM. Also, the EC50 with Peptide-1 was 1 nM; with Peptide-6, 1.4 nM; with Peptide-5, 0.9 nM; with Peptide-7 it was 3.6 nM; with Peptide-13, 3.9 nM; with Peptide-12, 0.6 nM. For the same molecule, the EC50 was determined as 1.6 nM with Peptide-3 [11]; 1.1 nM in the test with Peptide-2; 1.9 nM with Peptide-25 [12]; 1.1 nM in test [13]; 1.1 nM in [14].

B6: TBD-16 (anti-TROP2 Fab, HC S103A) (Fab, V domains shown)
VH: B1 VH with A98R, S103A
VL: B1 VL
With B6, the values for the EC50 in [6] and in [4] were 0.177 nM and 0.2 nM, respectively. The “t1/2” value in test [1] came to 103 min. In addition, the “Fold shift in EC50 relative to wt” value in test [3] was found to be 1 fold. For the same molecule, in [5], the Kd was 0.211 nM.
